From publication PMC5726015, “Selection, characterization, and thermal stabilization of llama single domain antibodies towards Ebola virus glycoprotein” (Microbial Cell Factories, 2017)

Columns and labels:
[1] = target: Recombinant EBOV GP without transmembrane domain (Zaire ebolavirus, strain of GP not …, UniProt Q05320)
Target sequence in this assay (Q05320 33-501, chain 1 of 2): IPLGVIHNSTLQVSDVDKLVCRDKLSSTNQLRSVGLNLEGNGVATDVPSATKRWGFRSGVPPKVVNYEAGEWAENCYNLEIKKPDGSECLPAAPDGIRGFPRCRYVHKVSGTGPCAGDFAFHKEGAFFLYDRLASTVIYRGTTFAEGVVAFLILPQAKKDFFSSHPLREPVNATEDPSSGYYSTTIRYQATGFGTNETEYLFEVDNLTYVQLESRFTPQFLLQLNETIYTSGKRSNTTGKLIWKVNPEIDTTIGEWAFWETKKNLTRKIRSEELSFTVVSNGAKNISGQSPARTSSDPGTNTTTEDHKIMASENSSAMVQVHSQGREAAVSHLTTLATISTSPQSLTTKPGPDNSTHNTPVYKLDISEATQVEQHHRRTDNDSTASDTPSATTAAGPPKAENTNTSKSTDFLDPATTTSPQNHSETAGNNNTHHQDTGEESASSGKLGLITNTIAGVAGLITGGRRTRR
Target sequence in this assay (O11457 502-650, chain 2 of 2, further chain): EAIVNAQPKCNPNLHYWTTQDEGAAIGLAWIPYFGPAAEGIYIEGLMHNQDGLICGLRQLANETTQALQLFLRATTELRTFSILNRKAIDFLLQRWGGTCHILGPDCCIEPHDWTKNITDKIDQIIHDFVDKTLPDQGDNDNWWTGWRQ

[2] = target: T1, Recombinant EBOV GP without transmembrane domain (Zaire ebolavirus, strain of GP not …, UniProt Q05320); assay: SPR; settings: both partners purified
T1 construct: also called recombinant GP; EBOV rGPdTM; source: bought: IBT Bioservices
Target sequence in this assay (Q05320 whole entry, looked up, the tested form may be a part): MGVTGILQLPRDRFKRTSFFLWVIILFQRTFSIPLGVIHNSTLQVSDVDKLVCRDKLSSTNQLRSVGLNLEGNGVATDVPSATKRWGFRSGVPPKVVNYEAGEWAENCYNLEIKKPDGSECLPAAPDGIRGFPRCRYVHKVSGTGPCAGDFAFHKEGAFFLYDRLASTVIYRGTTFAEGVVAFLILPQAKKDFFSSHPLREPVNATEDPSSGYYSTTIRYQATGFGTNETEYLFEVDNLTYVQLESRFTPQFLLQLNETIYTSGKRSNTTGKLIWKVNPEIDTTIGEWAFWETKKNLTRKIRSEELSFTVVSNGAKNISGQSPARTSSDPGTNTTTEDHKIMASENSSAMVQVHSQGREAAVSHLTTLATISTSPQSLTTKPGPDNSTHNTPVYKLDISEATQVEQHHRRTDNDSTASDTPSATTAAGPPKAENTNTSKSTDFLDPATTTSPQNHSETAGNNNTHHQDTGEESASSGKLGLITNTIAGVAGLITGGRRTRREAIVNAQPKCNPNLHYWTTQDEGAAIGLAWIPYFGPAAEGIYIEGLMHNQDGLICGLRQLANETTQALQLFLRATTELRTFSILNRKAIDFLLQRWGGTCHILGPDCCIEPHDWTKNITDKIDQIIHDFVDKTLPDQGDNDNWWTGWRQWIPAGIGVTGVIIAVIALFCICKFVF

[3] = target: T1, Recombinant EBOV GP without …; assay: SPR; settings: both partners purified; remark: listed apart in the source
T1 sequence (Q05320 whole entry, looked up, the tested form may be a part): as above

B1: R3F12 (VHH)
VHH: DVQLQASGGGLVQAGGSLRLSCAASSGTFSSYTMGWFRQAPGKERELVARLSQSLTTLYADSVKGRFTISRDNAENTVYLQMNSLKPEDTGVYYCAAHPGTYGSAWLISPHDYAYWGQGAQVTVS
B1: binds [1].

B2: EBOV-GP-H7 (VHH)
VHH: DVQLQASGGGLVQAGGSLRLSCAASSGTFSSYTMGWFRQAPGKERELVARLSQSLTTLYADSVKGRFTISRDNAENTVYLQMNSLKPEDTGVYYCAAHPGTYGSAWLISPHDYAYWGQGTQVTVS
Binder B2 has a Kd [2] of 17 nM, a koff [2] of 0.0003 s⁻¹ and a kon [2] of 17000 M⁻¹ s⁻¹.

B3: R2D10 (VHH)
VHH: EVQLQASGGGLVEPGGPLRLSCAVSGINFNINHWGWYRQAPGKQREWVATIAIGGATDYADSLKGRFTISRDNMKNTVYLQMNSLRPEDTAVYYCNGVGSKWSDRWGQGTQVTVS
B3: binds [1].

B4: R2G2 (VHH)
VHH: EVQLQASGGGLVEPGGSLRLSCAVSGINFNINHWGWYRQAPGKQREWVATIAIGGATDYADSLKGRFTISRDNMKNTVYLQMNSLRPEDTAVYYCNGVGSKWSDRWGQGTQVTVS
B4: binds [1].

B5: R3F8 (VHH)
VHH: EVQLQASGGGLVEPGGSLRLSCAVSGINFNINHWGWYRQAPGKQREWVATIAIGGATDYADSVKGRFTISRDNMKNTVYLQMNSLRPEDTAVYYCNGVGSKWSDRWGQGTQVTVS
B5: binds [1].

B6: R2C8 (VHH)
VHH: EVQLQASGGGLVEPGGSLRLSCAVSGINFNINHWGWYRQAPGKQREWVATIAIGSATDYADSLKGRFAISRDNMKNTVYLQMNSLRPEDTAVYYCNGVGSKWSDRWDQGTQVTVS
B6: binds [1].

B7: R2H11 (VHH)
VHH: EVQLQASGGGLVQAGGSTRLSCAGSGSIFSINAMGWYRQTPEKQRELVATISSSGSTKYGDSVKGRFTISRDNAKNTVYLQMNSLKPEDTAVYYCNTQTAGPVADWGTSHYDYWGQGVQVTVS
B7: binds [1].

B8: EBOV-GP-E7 (VHH)
VHH: EVQLQASGGGLVQPRGSLRLSCAASGSIFSINAMGWYRQTPEKQRELVATISSSGSTKYGDSVKGRFTISRDNAKNTVYLQMNSLKPEDTAVYYCNTQTAGLVADWGTSHYDYWGQGVQVTVS
In the case of B8, the Kd [2] is reported as 34 nM, the koff [2] is reported as 0.00011 s⁻¹ and the kon [2] is reported as 3500 M⁻¹ s⁻¹.

B9: R2H1 (VHH)
VHH: EVLLQASGGGLVQPGGSLRLSCAASGLIFSINVMGWYRQTPGKQRELVASISRDDSTKYADSVKGRFTISRDNAKNTVYLQMNSLKPEDTAVYYCNTQTEGPVADWGTSHYDYWGQGTQVTVS
B9: binds [1].

B10: EBOV-GP-G6 (VHH)
VHH: DVQLQASGGGLVQAGGSLRISCAASGGALSDYNMGWFRQAPGKEREFVAVVTWSGGSTRYADSVNGRFTISRDNAKNTVYLQMNSLKPEDTAVYYCAAAPLTPFQSLGDMKAYNYWGQGTQVTVS
In the case of B10, the Kd [2] is reported as 2 nM, the koff [2] is reported as 0.00015 s⁻¹ and the kon [2] is reported as 70000 M⁻¹ s⁻¹.

B11: R3B7 (VHH)
VHH: DVQLQASGGGLVQTGGSLRLACAGSGRSFNNYGMGWFRQAPGKERQFVAAISGNDHTTHYSDSVKGRFTISRDNAKSTVYLQMNSLKPEDTAVYYCAADRLGSFFFPRASPSDYGYWGQGTQVTVS
B11: binds [1].

B12: EBOV-GP-B11 (VHH)
VHH: EVQLQASGGGLVQTGGSLRLACAGSGRSFNNYGMGWFRQAPGKERQFVAAISGNDHTTHYSDSVKGRFTISRDNAKTTVYLQMNSLKPEDTAVYYCAADRLGSFFFPRASPSDYGYWGQGTQVTVS
With B12 the Kd [2] was 35.9 nM, the koff [2] was 0.00321 s⁻¹ and the kon [2] was 89800 M⁻¹ s⁻¹.

B13: EBOV-GP-D1 (VHH)
VHH: EVQLQASGGGSVPPGGSLRLSCTASLRAFSTYTMGWFRQAPGKEREFVAASNWRGTDFHDSVRGRFIISRDNTEKTVDLQMNSLKPEDTAIYYCAADGSTWLKRSDYSYWGQGTQVTVS
With B13 the Kd [2] was 11 nM, the koff [2] was 0.00033 s⁻¹ and the kon [2] was 30000 M⁻¹ s⁻¹.

B14: EBOV-GP-B5 (VHH)
VHH: EVQLQASGGGLVQAGGSLRLSCTASLRAFSTYTMGWFRQAPGKEREFVAASNWRGTDFHDSVKGRFIISRDNTKKTVDLQMNSLKPEDTAIYYCAADGSTWLKRSDYSYWGQGTQVTVS
For B14, the Kd [2] was 11 nM, the koff [2] was 0.00037 s⁻¹ and the kon [2] was 34000 M⁻¹ s⁻¹.

B15: EBOV-GP-G6-neg+ (VHH)
VHH: DVQLVESGGGLVQAGGSLRISCAASGGALSDYNMGWFRQAPGKEREFVCVVTWSGGSTRYADSVNGRFTCSRDNAKNTVYLQMNSLKPEDTAVYYCAAAPLTPFQSLGDMKAYNYWGQGTQVTVSS
notes: also called Bt-sdAb-neg+
B15 gave a Kd [3] of 44 nM, a koff [3] of 0.00015 s⁻¹ and a kon [3] of 3500 M⁻¹ s⁻¹.

B16: R2A1 (VHH)
VHH: EVQLQASGGGLVQARGSLQLSCAAPGRPVRTYTMGWFRQAPGKEREFVAANNWRGTRYAGSVRGRFSISRDNSKNTVYLQMNSLKPEDTAVYYCACAVTADLLLSGNYFRGDDYDYWGQGTQVTVS
B16: binds [1].

B17: R3C11 (VHH)
VHH: DVQLQASGGGLVQAGGSLQLSCAAPGRPVRTYTMGWFRQAPGEEREFVAANNWRGTRYAGSVRGRFSVSRDNSKNTVYLQMNSLKPEDTAVYYCACAVTADLLLSGNYYRGDDYDYWGLGTQVTVS
B17: binds [1].

B18: R2B4 (VHH)
VHH: EVQLQASGGGLVQAGGSLQLSCAAPGRPVRTYTMGWFRQAPGKEREFVAANNWRGTRYAGSVRGRFSISRDNSKNTVYLQMNSLKPEDTAVYYCACAETADLLLSGNYFRGDDYDYWGQGTQVTVS
B18: binds [1].

B19: R3G10 (VHH)
VHH: EVQLQASGGGSVQAGGSLQLSCAAPGRPVRTYTMGWFRQAPGKEREFVAANNWRGTRYAGSVRGRFSTSRDNSKNTVYLQMNSLKPEDTAVYYCACAVTADLLLSGNYFRGDDYDYWGQGTQVTVS
B19: binds [1].

B20: EBOV-GP-A8 (VHH)
VHH: EVQLQASGGGLAQAGGSLQLSCAAPGRPVRTYTMGWFRQAPGKEREFVAANNWRGTRYAGSVRGRFSISRDNSKNTVYLQMNSLKPEDTAVYYCACAVTADLLLSGNYFRGDDYDYWGQGTQVTVS
notes: also called Bt-EBOV-GP-A8
For B20, the Kd [2] was 2.3 nM, the koff [2] was 7.2e-05 s⁻¹ and the kon [2] was 31000 M⁻¹ s⁻¹.

B21: R3H8 (VHH)
VHH: EVQLQASGGGLVQAGGSLQLSCAAPGHPVRTYTMGWFRQAPGKEREFVAANNWRGTRYAGSVRGRFSISRDNSKNTVYLQMNSLKPEDTAVYYCACAVTADLLLSGNYFRGDDYDYWGQGTQVTVS
B21: binds [1].

B22: R2E4 (VHH)
VHH: EVQLQASGGGLVQAGGSLQLSCAAPGRPVRTYTMGWFRQAPGKEREFVAANNWRGTRYAGSVRGRFSISRDNSKNTVYLQMNSLKPEDTAVYYCACAVTADLLLSGNYFRGDDYDYWGQGTQVTVS
B22: binds [1].

B23: R2E6 (VHH)
VHH: DVQLQASGGGLVQAGGSLQLSCAAPGRPVRTYTMGWFRQAPGMEREFVAANNWRGTRHAGSVRGRFSISRDNSKNTVYLQMNSLKPEDTAVYYCACAVTADLLLSGNYFRGDDYDYWGQGTQVTVS
B23: binds [1].

B24: EBOV-GP-C12 (VHH)
VHH: EVQLQASGGGLVQPGGSLRLSCTASGSIFSINAMGWYRQTPRKERELVAAISEGGSTKYGDSVKGRFTISRDFAKNTQMVYLQMNSLKAEDTAVYYCKAQTEGPIADWGTSQYEYWGQGTQVTVS
With B24 the Kd [2] was 26.8 nM, the koff [2] was 8.71e-05 s⁻¹ and the kon [2] was 3280 M⁻¹ s⁻¹.

B25: EBOV-GP-H7-neg+ (VHH)
VHH: DVQLVESGGGLVQAGGSLRLSCAASSGTFSSYTMGWFRQAPGKERELVCRLSQSLTTLYADSVKGRFTCSRDNAENTVYLQMNSLKPEDTGVYYCAAHPGTYGSAWLISPHDYAYWGQGTQVTVSS
notes: also called EBOV-H7-neg+; Bt-sdAb-neg+
With B25 the Kd [3] was 40 nM, the koff [3] was 0.0014 s⁻¹ and the kon [3] was 35000 M⁻¹ s⁻¹.

B26: EBOV-GP-A8-neg+ (VHH)
VHH: EVQLVESGGGLVQAGDSLQLSCAAPGRPVRTYTMGWFRQAPGKEREFVCANNWRGTRYAGSVRGRFSCSRDNSKNTVYLQMNSLKPEDTAVYYCACAVTADLLLSGNYFRGDDYDYWGQGTQVTVSS
In the case of B26, the Kd [3] is reported as 0.95 nM, the koff [3] is reported as 5.8e-05 s⁻¹ and the kon [3] is reported as 61000 M⁻¹ s⁻¹.

B27: EBOV-GP-A8-fneg+ (VHH)
VHH: EVQLVESGGGLVQAGDSLQLSCAAPGRPVRTYTMGWFRQAPGKEREFVCANNWRGTRYAGSVRGRFSCSRDNSKNTVYLQMNSLKPEDTAVYYCASAVTADLLLSGNYFRGDDYDYWGQGTQVTVSS
notes: also called Bt-sdAb-neg+
Binder B27 has a Kd [3] of 0.69 nM, a koff [3] of 9.1e-05 s⁻¹ and a kon [3] of 130000 M⁻¹ s⁻¹.
